According to patent publication US20040110711A1:

Biological target: mouse full-length TrkB (TrkB.FL) (mouse)
Experiment: cell-based or functional assay

- TrkB phosphorylation in Ts16 neurons against euploid neurons: 33 % less
Substance: BDNF (brain derived neurotrophic factor), supplied by Regeneron Pharmaceuticals (from UniProt P23560 129-247) (ligand)
- neuron survival 36 hours after B27 withdrawal: 65%
